The values that follow come from the domain aggregation screens of Martell et al. (2025).

A short description of the data set: soluble fraction after stress (log2 fold change); higher = more stays soluble; pooled small domains, quantitative proteomics. The settings on record: stress: 75 degC.
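Also: 20 min heating vs room temperature control held 20 min.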

“HMRRSDLVTQGDEILKRLQWNQQQAKDFLNQHLKASSRQQLTDEQLLNFNMLLEEQLVKSME”: the “soluble fraction (log2)” value was 0.426.

On to “HMRRSLIGPTVRERRRALGITQSRLAAEVGISASYLNLIEGDKRNIGGALLQRIAGALGLALD”, for which the “soluble fraction (log2)” value is -3.08.

As for “HMRRTVIVTAAHAEIRERPDANAPLVFSAEQKVSLDYQETAPGGWVKVRHRDGQSGYVRTNQI”, the “soluble fraction (log2)” value was -0.716.

For the sequence “HMRRVGTALNRSHKVSYGESIQSIAARYNVNPTMLREYNRLKPEATITPGQILRIPPATIAS”, the “soluble fraction (log2)” value was -0.481.

For “HMRRVRRTRRLLQDGLLGLMQHKAVADISVKELAEAADVARATVYVHFKDPADVLHQLEQGLY”, the “soluble fraction (log2)” value came to 0.091.

Take “HMRSDHVFTSHLARRDKYISELESLSDSARDDHIQTIKEEDEYLLKYRRTRNLFGIPLNDEMKQFEPFNY”: the “soluble fraction (log2)” value was -0.228.

As for “HMRSEILNLLREKSPQPVSGQDLANHFGITRTAVWKHIQSLKKMGYGIEAYTKKGYVLVSVPN”, the “soluble fraction (log2)” value is -0.159.

Turning to “HMRSGEDESFSAGLLEYPHYTRPAEFEGHRIPDILTSGDHAKVDAWRQEMSEHITRERRPDLWEMYKKK”, the “soluble fraction (log2)” value was determined as 0.13.

Consider “HMRSHLSANLQRLRHIAGLTQKDLALAANLPRATLASLEQGEANPRLDTLLAVASALQVGLDELIAAP”, for which the “soluble fraction (log2)” value was -1.32.

As to “HMRSIMAVSNYRHKKILEMVYQRKSVSADELAAEFGVSKITIRRDLDTLAMDKLLERTRGGAISISD”, the “soluble fraction (log2)” value was -3.14.

For the sequence “HMRSRHYRFSTPFLDRLIAEIDWNSDNALSIFNQKLVHFDFLKYFSAIQPGSIVEIENLNFIWTGKRLEAH”, the “soluble fraction (log2)” value was -3.37.

For “HMRSVLSDEIYLLIRKMIFNYEILPGAKVNIDALAKKLDVSQTPVREALSRLESDGLIVKEPLKGFRATD”, the “soluble fraction (log2)” value was -2.72.

For the sequence “HMRSVPNVAGLGMDGAAFQLGKAGFAIGTITPADDPKAVVGSIQRTEPAAGTVADRDTVVNLFQV”, the “soluble fraction (log2)” value was 0.228.

With “HMRSVTLQTDREGDILYVDGKQIGVSPQRLELSYGVHTIRAERGEQHTEKELEVTETGGETVVTLGFG”, the “soluble fraction (log2)” value was 0.375.

With “HMRSYTPGSAFRLSSVPVYNAETGPSIGVRSGTYYIHSLPVSNGRIRMTNLISRVGKPGQVSFWVEISR”, the “soluble fraction (log2)” value was -3.11.

“HMRTAELEVWDDDELNDVVKLIQNNHNINTLKLRFQENVSFSGLSLIAAVLTKQSIILEIEY”: the “soluble fraction (log2)” value is 0.235.

On to “HMRTDQYHYLAWKQVADELGIPFDEQVNERLRGVSRMASFDIILERYDGTMSDEEKIHWTDKKNEIYKSM”, for which the “soluble fraction (log2)” value was -0.603.

For “HMRTGLSGMIGEIGIVKQAIDPEGKVAVHGELWKARADVALAAGQTVRVVAVDGLTMTVEATDSK”, the “soluble fraction (log2)” value is -0.661.

Turning to “HMRTIPDALIGRPYESVETAIVLEGLQAKRTEVFHPTIRPGTVIRLEPTSGSELLRDGVVEIFVSQGPETT”, the “soluble fraction (log2)” value was 0.157.

For “HMRTITIDDSIAGKRLDEALTLLGAESSRTKVKLLFSSPNGVLVNGEKEKPHYRVEAGDVIQFGELPKK”, the “soluble fraction (log2)” value came out at 0.541.

With “HMRTKEGLASQLEKIPGIGPVKRKALLKKFGSIDAIAAASKEELMLTDGITSSLADAIRDYF”, the “soluble fraction (log2)” value is -0.0754.

On to “HMRTLKDSTEYLIRSMLLRGEMKVGEIYSANALAKELNISNSPVREAMMSLVDRGLLENVRNRGFRVV”, for which the “soluble fraction (log2)” value was -1.83.

Regarding “HMRTLRENIMDYFKQQTIIQKSSVILLPMSKRQLADYFGVQRPSLFRELKKLKEEGIIEINNRTITIK”, the “soluble fraction (log2)” value is -1.8.

Turning to “HMRTSIWTAIAHSLRSDIGSGVYGPDDKLPTESALAARFGVNRHTVRHAIKALTDEGLVLPRRGAGVFVTS”, the “soluble fraction (log2)” value is -0.241.

Take “HMRTSPGADYEKTYYTIQSGDNLGAIAEKMGVSVADLKDWNDISGTKIYAGKKLVIYVKKGST”: the “soluble fraction (log2)” value was -0.351.

On to “HMRTTTGSEGMIGSIGKAKTDLAPDGKIFIHGELWDATSSSPVSAGQKIEVTQIEGLKLHVKPVL”, for which the “soluble fraction (log2)” value came to 0.7.

On to “HMRTVLSDETYLRIREMLLTHDIAPGERINIDALARELDVSQTPVREALARLESEDLVTKEPLRGYTATK”, for which the “soluble fraction (log2)” value was -0.0533.

For the sequence “HMRTYEHALTEEEKELILIVSNLSEYKSLPPSQIVPKLADLGIYIASESSFYRVLRAHNQLHHRGR”, the “soluble fraction (log2)” value was -2.75.

Consider “HMRTYYEILGVSKNASLHEIQKAYRELALKYHPKNNSDPTAEEKFTQINEAYTHLSDAARRRSYDDL”, for which the “soluble fraction (log2)” value was found to be 0.554.

As for “HMRVGADLTQRERELLALMAQGMSNQEIAKRLEIAVPTVKFHITNILDKLQVGNRTEAVIAALEHKLVP”, the “soluble fraction (log2)” value is -0.704.

For the sequence “HMRVKLVKKSILASGGENIRVDKFLSNHILTMTRTQIKKLFLDGLVQVNKSFVKPGSILKGNEIITFSIPE”, the “soluble fraction (log2)” value is -1.68.

Turning to “HMRVNINVSENILDWVMKRVNPSVLSSKQGELLYAWKEGRKVPTYNQIEKMSKVTGIPLGYFFLEKPPVE”, the “soluble fraction (log2)” value is -1.45.

For the sequence “HMRVPQWLVDKIAAAGIDTHRSGPALKALAAKAGTPEQLDQAIARAKALRRRTGSTQSLNVGLLGSILEGT”, the “soluble fraction (log2)” value is -0.345.

“HMRVQELARDLGVEADTLIALLRQMGIPVTGARSAINDAQQAKVLAKIERERRAGHSDPAKAIQAVLEEAS”: the “soluble fraction (log2)” value amounted to 0.00503.

In the case of “HMRVSNADALIGRRGKANSDIRRGDYGWVAIDGDVWKSKLADDITEDIPMGAIVEVLSRDSIILTVKP”, the “soluble fraction (log2)” value was -0.926.

With “HMRWAAIMGREVAAHSTPESLVEGKLHIRTDTTAWATQLRLMSADIVRRLNEVLGEGTVLEVDVRG”, the “soluble fraction (log2)” value is -2.22.

With “HMRWSDQKEIVTLSLDHVLVEKGRKTKEYSWREFRTFTAFEIKKSSKDQINLGFKSKGNTVIIGNF”, the “soluble fraction (log2)” value is -1.2.

With “HMSAAELFEERQRQYLRGRKSTKNIADNHGTIILRAGETITDQAIDKAKVAGKLVELVMNNE”, the “soluble fraction (log2)” value was 0.104.

Consider “HMSADDSDDRKGIDAWLTQLLANGSVKATEVYSAADAAGYSKDQAKRAKRRLAIEAVREAMDGPWFWRLD”, for which the “soluble fraction (log2)” value was -0.853.

For the sequence “HMSAEDQRRASQEAAYRFMQVMAGNEAGFEDAARALFAGDNHRFEVLIQSWPDDVRDHVSLLSVDAFA”, the “soluble fraction (log2)” value is -0.651.

With “HMSAEVMLRRLIDENDPSSENARYILAVMLERKKILAPVDVKNEKKSKMLFYEHQKTGEAFIVRDP”, the “soluble fraction (log2)” value was -0.0597.

Turning to “HMSAEVSEIEIQRIISYYRNQNGVPDKYNEIFDRIAAQYTDEQLKVISNFLPSDVKQYLSFNNEKYKSLG”, the “soluble fraction (log2)” value is -0.904.

Consider “HMSAGKKSFTNSEFRRFLDALGEGLIVKHKKLGEGVVVEIRGDKAVIQFGDEQRLYELKTLYEYDLLR”, for which the “soluble fraction (log2)” value is -0.628.

With “HMSALAQDGDLVQLQGAGYKSHILRLKAGEVLQTHRGVIQHDAVIGQPWGARLQSHTGSPFYLFQPGLADL”, the “soluble fraction (log2)” value was -0.684.

“HMSALTELPVKTVNGKKYHYYVVKQHETVYALSKRFGITPEQLIKYNPSAEDGLQIDQELLFPATEI”: the “soluble fraction (log2)” value was -0.353.

For the sequence “HMSANVSMEEALRRTSQAHSLAGKWMRRVLQMAQGRDLIEQMQREAQEAHLPELIGMSVQLEFIRRG”, the “soluble fraction (log2)” value was -0.107.

“HMSAPEGWMNRGDLRDNFRIQYPVTDRIIASYRESHPEWFGTYLSKTSKSLEYFHPDLVAKVREAAN”: the “soluble fraction (log2)” value was -0.0761.

In the case of “HMSAPQKWDGSLQDFIRFKQEAKTLMDNIPNKRLALNAILETISDGKMRKRLAKYDGPESALKSLELEFGN”, the “soluble fraction (log2)” value was -0.1.

Take “HMSAQDLIVRRDSARIEARVTEISPTEIRYKRASNPDGPTYVLPLGDVRSIRYANGEEEVFAPA”: the “soluble fraction (log2)” value was -0.223.

Turning to “HMSAQQTFLRDAMRRLNMTRDSFAERIGVRRRALDTWLLPEDSSEYRTMPSIVEKFVGEILGREA”, the “soluble fraction (log2)” value was -0.65.
